Measured values as given in patent US7410949 (Hoffmann-La Roche, dated 2008).
*1 amine or outer side, *2 acyl side, *3 side chain or, on linkers, in order; H or OH if unused. [ ]: non-standard residue; d: D form. Pqa = N-piperazin-1-yl-4(3H)-quinazolinone-3-acetic acid, O=C(Cn1cnc2ccc(N3CCN([*:1])CC3)cc2c1=O)[*:2]; Phe(3,4,5-F3) = N[C@@H](Cc1cc(F)c(F)c(F)c1)C(=O)O; Phe(F5) = N[C@@H](Cc1c(F)c(F)c(F)c(F)c1F)C(=O)O; 2Nal = N[C@@H](Cc1ccc2ccccc2c1)C(=O)O; Nle = CCCC[C@H](N)C(=O)O

Columns and labels:
[1] = target: Y4R; assay: cell-based or functional assay
[2] = target: Y1R; assay: cell-based or functional assay
Y1R, sequence (P25929 whole entry): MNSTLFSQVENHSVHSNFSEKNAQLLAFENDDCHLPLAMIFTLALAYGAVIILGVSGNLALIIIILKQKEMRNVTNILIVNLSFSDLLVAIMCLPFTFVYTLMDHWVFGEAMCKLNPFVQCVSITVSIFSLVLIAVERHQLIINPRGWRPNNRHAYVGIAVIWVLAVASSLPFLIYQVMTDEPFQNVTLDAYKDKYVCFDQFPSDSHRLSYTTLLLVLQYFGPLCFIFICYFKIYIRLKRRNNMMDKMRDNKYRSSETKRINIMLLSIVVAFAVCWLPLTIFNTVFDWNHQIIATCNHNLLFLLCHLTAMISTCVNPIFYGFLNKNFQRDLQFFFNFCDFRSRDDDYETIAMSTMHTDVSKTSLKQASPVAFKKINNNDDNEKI

Row | Binder | Y4R EC50(nM) FLIPR [1] [nM] | Y1R EC50(nM) FLIPR [2] [nM]
1 | IKRHYLNLVTRQRY (N-methyl Ile at PYY position 3 (residue 1 of the first part); Pqa moiety between the two parts; C-terminal amide) [H-NMeIle-Lys-Pqa-Arg-His-Tyr-Leu-Asn-Leu-Val-Thr-Arg-Gln-Arg-Tyr-NH2] | > 5000 | –
2 | IKRHYLNLVTRQRY (N-methyl Leu at PYY position 30 (residue 6 of the second part); Pqa moiety between the two parts; C-terminal amide) [H-Ile-Lys-Pqa-Arg-His-Tyr-Leu-Asn-(NMe)Leu-Val-Thr-Arg-Gln-Arg-Tyr-NH2] | > 5000 | > 5000
3 | IKRHYLNLVTRQRY (N-methyl Val at PYY position 31 (residue 7 of the second part); Pqa moiety between the two parts; C-terminal amide) [H-Ile-Lys-Pqa-Arg-His-Tyr-Leu-Asn-Leu-(NMe)Val-Thr-Arg-Gln-Arg-Tyr-NH2] | > 5000 | > 5000
4 | IKRHYLNLVTRQRY ((D)Asn at PYY position 29 (residue 5 of the second part); Pqa moiety between the two parts; C-terminal amide) [H-Ile-Lys-Pqa-Arg-His-Tyr-Leu-(D))Asn-Leu-Val-Thr-Arg-Gln-Arg-Tyr-NH2] | > 5000 | –
5 | Ac-I[Nle][Pqa]RH[2Nal]LNLVTRQRY-NH2 (SMILES CCCC[C@H](NC(=O)[C@@H](NC(C)=O)[C@@H](C)CC)C(=O)N1CCN(c2ccc3ncn(CC(=O)N[C@@H](CCCNC(=N)N)C(=O)N[C@@H](Cc4c[nH]cn4)C(=O)N[C@@H](Cc4ccc5ccccc5c4)C(=O)N[C@@H](CC(C)C)C(=O)N[C@@H](CC(N)=O)C(=O)N[C@@H](CC(C)C)C(=O)N[C@H](C(=O)N[C@H](C(=O)N[C@@H](CCCNC(=N)N)C(=O)N[C@@H](CCC(N)=O)C(=O)N[C@@H](CCCNC(=N)N)C(=O)N[C@@H](Cc4ccc(O)cc4)C(N)=O)[C@@H](C)O)C(C)C)c(=O)c3c2)CC1) [Ac-Ile-Nle-Pqa-Arg-His-(2)Nal-Leu-Asn-Leu-Val-Thr-Arg-Gln-Arg-Tyr-NH2] | > 5000 | –
6 | IKRHYLNLVTRQRY ((D)Leu at PYY position 28 (residue 4 of the second part); Pqa moiety between the two parts; C-terminal amide) [H-Ile-Lys-Pqa-Arg-His-Tyr-(D)Leu-Asn-Leu-Val-Thr-Arg-Gln-Arg-Tyr-NH2] | > 5000 | –
7 | IKRHYLNLVTRQRY (N-terminal acetyl; Pqa moiety between the two parts; C-terminal amide) [Ac-Ile-Lys-Pqa-Arg-His-Tyr-Leu-Asn-Leu-Val-Thr-Arg-Gln-Arg-Tyr-NH2] | > 5000 | –
8 | IKRHYLNLVTRQRY (N-methyl Tyr at PYY position 36 (residue 12 of the second part); Pqa moiety between the two parts; C-terminal amide) [H-Ile-Lys-Pqa-Arg-His-Tyr-Leu-Asn-Leu-Val-Thr-Arg-Gln-Arg-(NMe)Tyr-NH2] | > 5000 | > 5000
9 | IKRHYLNLVTRQRY ((D)Ile at PYY position 3 (residue 1 of the first part); Pqa moiety between the two parts; C-terminal amide) [H-(D) Ile-Lys-Pqa-Arg-His-Tyr-Leu-Asn-Leu-Val-Thr-Arg-Gln-Arg-Tyr-NH2] | > 5000 | > 5000
10 | IKRHYLNLVTRQRY ((D)His at PYY position 26 (residue 2 of the second part); Pqa moiety between the two parts; C-terminal amide) [H-Ile-Lys-Pqa-Arg-(D)His-Tyr-Leu-Asn-Leu-Val-Thr-Arg-Gln-Arg-Tyr-NH2] | > 5000 | –
11 | IKRHYLNLVTRQRY ((D)Tyr at PYY position 27 (residue 3 of the second part); Pqa moiety between the two parts; C-terminal amide) [H-Ile-Lys-Pqa-Arg-His-(D)Tyr-Leu-Asn-Leu-Val-Thr-Arg-Gln-Arg-Tyr-NH2] | > 5000 | –
12 | Ac-I[Nle][Pqa]RH[Phe(3,4,5-F3)]LNLVTRQRY-NH2 (SMILES CCCC[C@H](NC(=O)[C@@H](NC(C)=O)[C@@H](C)CC)C(=O)N1CCN(c2ccc3ncn(CC(=O)N[C@@H](CCCNC(=N)N)C(=O)N[C@@H](Cc4c[nH]cn4)C(=O)N[C@@H](Cc4cc(F)c(F)c(F)c4)C(=O)N[C@@H](CC(C)C)C(=O)N[C@@H](CC(N)=O)C(=O)N[C@@H](CC(C)C)C(=O)N[C@H](C(=O)N[C@H](C(=O)N[C@@H](CCCNC(=N)N)C(=O)N[C@@H](CCC(N)=O)C(=O)N[C@@H](CCCNC(=N)N)C(=O)N[C@@H](Cc4ccc(O)cc4)C(N)=O)[C@@H](C)O)C(C)C)c(=O)c3c2)CC1) [Ac-Ile-Nle-Pqa-Arg-His-(3,4,5trifluorPhe)-Leu-Asn-Leu-Val-Thr-Arg-Gln-Arg-Tyr-NH2] | > 5000 | –
13 | IKRHYLNLVTRQRY (N-methyl Leu at PYY position 28 (residue 4 of the second part); Pqa moiety between the two parts; C-terminal amide) [H-Ile-Lys-Pqa-Arg-His-Tyr-(NMe)Leu-Asn-Leu-Val-Thr-Arg-Gln-Arg-Tyr-NH2] | > 5000 | > 5000
14 | Ac-I[Nle][Pqa]RH[Phe(F5)]LNLVTRQRY-NH2 (SMILES CCCC[C@H](NC(=O)[C@@H](NC(C)=O)[C@@H](C)CC)C(=O)N1CCN(c2ccc3ncn(CC(=O)N[C@@H](CCCNC(=N)N)C(=O)N[C@@H](Cc4c[nH]cn4)C(=O)N[C@@H](Cc4c(F)c(F)c(F)c(F)c4F)C(=O)N[C@@H](CC(C)C)C(=O)N[C@@H](CC(N)=O)C(=O)N[C@@H](CC(C)C)C(=O)N[C@H](C(=O)N[C@H](C(=O)N[C@@H](CCCNC(=N)N)C(=O)N[C@@H](CCC(N)=O)C(=O)N[C@@H](CCCNC(=N)N)C(=O)N[C@@H](Cc4ccc(O)cc4)C(N)=O)[C@@H](C)O)C(C)C)c(=O)c3c2)CC1) [Ac-Ile-Nle-Pqa-Arg-His-(2,3,4,5,6 Penta fluoroPhe)-Leu-Asn-Leu-Val-Thr-Arg-Gln-Arg-Tyr-NH2] | > 5000 | –
